Test results reported in paper PMC5422739.

Key:
[1] = target: HTE20N (the first 27 residues of HTE20, amino acids 358–384 of HTE) (human) (UniProt P15502); assay: ELISA; HTE17-20, HTE20, HTE20N, HTE20C or BSA coated (1 μM/well); GST tagged LigB4 or LigB12 titrated 0 to 10 μM, 1 h at 37°C; HRP anti-GST; KD from a saturation fit of OD630
[2] = target: HTE17-20 (17th to 20th exon of human tropoelastin) (human); assay: ELISA; HTE truncates, HTE20 mutants or BSA coated (1 μM/well, 0.1 M NaHCO3 pH 9.4), blocked with 3% BSA in PBS; 5 μM GST tagged LigB4 or LigB12 applied 1 h at 37°C; HRP anti-GST; fold over BSA or percent of wild-type HTE20
[3] = target: HTE18 (18th exon of human tropoelastin) (human); assay: as above
[4] = target: HTE19-20 (19th to 20th exon of human tropoelastin) (human); assay: as above
[5] = target: HTE20 (20th exon of human tropoelastin) (human) (UniProt P15502); assay: as above
[6] = target: HTE20 mutant F378A (human) (UniProt P15502); assay: as above
[7] = target: HTE20 mutant F381A (human) (UniProt P15502); assay: as above
[8] = target: HTE20 mutant R360A (human) (UniProt P15502); assay: as above
[9] = target: HTE20 mutant Y371A (human) (UniProt P15502); assay: as above
[10] = target: LigB12-12-5 chimera (L. interrogans serovar Pomona); assay: ELISA; tag-free LigB5/LigB12 and LigB7/LigB10 chimeras and wild-type domains coated (1 μM/well); 5 μM histidine tagged HTE17-20, HTE20 or HTE20N applied; anti-His detection
[11] = target: LigB12-5-12 chimera (L. interrogans serovar Pomona); assay: as above
histidine tagged HTE20 = histidine tagged HTE20 (UniProt P15502); assay: ELISA; details: 10 µM His-HTE20 applied to wells coated with LigB12 construct (1 µM/well); detected by anti-His antibodies; parent: est. 0.73; read off a plot
histidine tagged HTE20N = histidine tagged HTE20N (UniProt P15502); assay: ELISA; details: 10 µM His-HTE20N applied to wells coated with LigB12 construct (1 µM/well); detected by anti-His antibodies; parent: est. 1.05; read off a plot
[12] = target: HTE25-27 (25th to 27th exon of human tropoelastin) (human); assay: ELISA; HTE truncates, HTE20 mutants or BSA coated (1 μM/well, 0.1 M NaHCO3 pH 9.4), blocked with 3% BSA in PBS; 5 μM GST tagged LigB4 or LigB12 applied 1 h at 37°C; HRP anti-GST; fold over BSA or percent of wild-type HTE20
[13] = target: tag free LigB12 (amino acids 1,047–1,119 in LigB) (L. interrogans serovar Pomona); assay: SPR; Biacore 3000; tag free LigB12 immobilised on CM5 (about 1,000 RU); HTE truncates 0 to 5 μM injected in PBS at 30 μL/min, 25°C; 1:1 Langmuir model
[14] = target: LigA on the surface of L. biflexa serovar Patoc ligA

HTE20 (20th exon of human tropoelastin) (human), sequence (P15502 358-412): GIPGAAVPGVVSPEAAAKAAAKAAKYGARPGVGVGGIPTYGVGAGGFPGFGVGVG
HTE17-20 (17th to 20th exon of human tropoelastin) (human), sequence (P15502 297-438): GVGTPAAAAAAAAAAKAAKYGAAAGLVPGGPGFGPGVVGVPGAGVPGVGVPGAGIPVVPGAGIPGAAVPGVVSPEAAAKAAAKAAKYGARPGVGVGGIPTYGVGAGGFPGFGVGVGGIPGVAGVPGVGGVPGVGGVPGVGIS
HTE20N (the first 27 residues of HTE20, amino acids 358–384 of HTE) (human), sequence (P15502 358-384): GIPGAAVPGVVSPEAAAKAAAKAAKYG
histidine tagged HTE20N, sequence (P15502 whole entry, looked up, the tested form may be a part): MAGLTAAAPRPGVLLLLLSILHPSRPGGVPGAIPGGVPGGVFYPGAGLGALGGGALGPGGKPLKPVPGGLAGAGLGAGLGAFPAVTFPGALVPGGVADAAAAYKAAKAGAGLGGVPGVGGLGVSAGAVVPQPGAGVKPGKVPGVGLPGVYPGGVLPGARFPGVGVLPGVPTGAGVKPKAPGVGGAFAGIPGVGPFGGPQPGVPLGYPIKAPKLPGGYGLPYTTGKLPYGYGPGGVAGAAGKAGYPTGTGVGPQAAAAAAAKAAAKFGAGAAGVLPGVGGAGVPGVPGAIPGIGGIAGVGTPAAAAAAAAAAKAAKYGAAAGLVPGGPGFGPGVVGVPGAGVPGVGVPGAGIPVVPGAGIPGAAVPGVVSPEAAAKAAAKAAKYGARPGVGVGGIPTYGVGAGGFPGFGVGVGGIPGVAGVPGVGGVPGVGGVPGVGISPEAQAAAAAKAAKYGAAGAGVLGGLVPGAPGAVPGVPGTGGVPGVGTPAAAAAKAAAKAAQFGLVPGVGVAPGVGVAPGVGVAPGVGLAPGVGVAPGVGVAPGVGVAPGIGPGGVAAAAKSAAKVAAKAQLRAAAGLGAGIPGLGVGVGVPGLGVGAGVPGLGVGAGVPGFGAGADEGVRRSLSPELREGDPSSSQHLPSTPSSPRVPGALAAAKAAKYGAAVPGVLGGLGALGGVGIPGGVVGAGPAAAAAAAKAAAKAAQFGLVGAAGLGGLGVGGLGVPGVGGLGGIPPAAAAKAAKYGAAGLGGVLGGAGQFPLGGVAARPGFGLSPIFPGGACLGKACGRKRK
histidine tagged HTE20, sequence (P15502 whole entry, looked up): as the sequence (P15502 whole entry, looked up, the tested form may be a part) above

GST tagged LigB4 (amino acids 307–403 in LigB) (domain or fragment)
Kd [1]: 860 nM
fold binding over BSA (negative control) [2]: 5.7 fold
fold binding over BSA (negative control) [3]: 2 fold
fold binding over BSA (negative control) [4]: 4.5 fold
fold binding over BSA (negative control) [5]: 4.4 fold
percent of wild-type HTE20 binding [6]: 35%
percent decrease of binding against wild-type HTE20 [7]: 54%
percent of wild-type HTE20 binding [8]: 32%
percent decrease of binding against wild-type HTE20 [9]: 61%

histidine tagged HTE17-20 (domain or fragment)
percent of wild-type LigB12 binding [10]: 90%
percent of wild-type LigB12 binding [11]: 80%

tag free LigB12 (amino acids 1,047–1,119 in LigB) A1065K
response (histidine tagged HTE20): 0.11 OD630
response (histidine tagged HTE20N): 0.09 OD630

GST tagged LigB12 (amino acids 1,047–1,119 in LigB) (domain or fragment)
Kd [1]: 860 nM
fold binding over BSA (negative control) [2]: 5.7 fold
fold binding over BSA (negative control) [3]: 2 fold
fold binding over BSA (negative control) [4]: 4.5 fold
fold binding over BSA (negative control) [5]: 4.4 fold
percent decrease of binding against wild-type HTE20 [6]: 62%
percent of wild-type HTE20 binding [7]: 35%
percent decrease of binding against wild-type HTE20 [8]: 54%
percent of wild-type HTE20 binding [9]: 35%
fold binding over BSA (negative control) [12]: 3 fold

HTE19-20 (19th to 20th exon of human tropoelastin) (domain or fragment)
Kd [13]: 1340 nM
koff [13]: 0.0043 s⁻¹
kon [13]: 3100 M⁻¹ s⁻¹

HTE17-20 (17th to 20th exon of human tropoelastin) (domain or fragment)
inhibition of the adhesion of LigA-expressing L. biflexa (Patoc ligA) to WI-38 cells after pre-incubation with HTE17-20, 10 to 0.156 μM; ELISA with hamster anti-L. biflexa sera [14]: 61%
